Measurements: US20200123231A1 (RESEARCH FOUNDATION OF THE CITY UNIVERSITY OF NEW YORK, published 2020)

Biological target: the molecule itself
Test: TEM, negative stain, TES buffer pH 7, 24 h at 37 C; non-specific self-association (no fibrils)
Method: FIG. 5A and FIG. 5B are TEM images of the non-specific aggregates of Col108r. The fibril formation was initiated by transferring Col108r in 5 mM Acetic Acid (pH 4.5) to TES buffer (pH 7) and incubated for 24 hr at 37° C. The grids were stained with 1% sodium phosphotungstate; magnification factor 10,000; the scale bar is 200 nm. The two images were taken for two different preparations under identical treatments.

B1: peptide Col108r (Col-domain, randomized Col-domain and reversed Col-domain units) (peptide)
chain: GPCCGPPGPPGPPGPPGERGPPGPQGARGLPGAPGQMGPRGLPGERGRPGAPGPAGARGEPGAPGSKGDTGAKGEPGPVGVQGPPGPAGEEGKRGARGEPGPTGPAGPKGSPGEAGRPGEAGLPGPPGPPGPPGPPGMQGLPGPRGAPGRAGPEGRAGRPGPAGLPGEQGRAGRPGPPGAEGAEGKPGAPGSPGPRGLPGPAGDTGPEGQVGARGPKGEPGTPGRAGEPGEPGVPGKAGPKGESGPPGPPGPPGPPGREGPPGQPGRAGPLGPAGMQGRPGPLGREGPRGPAGAPGRAGPEGPAGKSGTDGKAGPEGVPGQVGPPGAPGEEGRKGRAGPEGTPGAPGKPGPSGAEGPRGAEGPLGPPGPPGPPGPPGPCCGYIPEAPRDGQAYVRKDGEWVLLSTFL
notes: Forms a collagen triple helix (trimer) with Cys-knots and foldon
- binding result: binds
